Data as given in paper PMC3431236, “Characterization and optimization of ArtinM lectin expression in Escherichia coli” (BMC Biotechnology, 2012).

Experiments:
[1] = molecular target: plant native ArtinM (Artocarpus integrifolia); assay: SEC; analytical size exclusion chromatography on TSK-G2000sw, 50 mM KH2PO4, 300 mM NaCl, pH 7.4; calibrated with thyroglobulin, immunoglobulin G, ovalbumin and myoglobin
[2] = molecular target: T1, rArtinM (recombinant ArtinM) (Artocarpus integer, UniProt Q7M1T4, Q3R); assay: affinity chromatography on D-mannose column, eluted with free D-mannose; assay type: binding; details: PBS with 0.5 M NaCl, 4 °C; elution with 0.1 M D-mannose; unintentional Q3R carried by the recombinant protein
T1 construct: coding region from cDNA clone pLL29 in pET29a(+) (NdeI/BamHI, stop codon, untagged), E. coli BL21-CodonPlus(DE3)-RP; initiator Met removed, not N-acetylated; unintentional Q3R; monomer (native is tetramer)
T1 sequence (Q7M1T4 entry or part of it Q3R): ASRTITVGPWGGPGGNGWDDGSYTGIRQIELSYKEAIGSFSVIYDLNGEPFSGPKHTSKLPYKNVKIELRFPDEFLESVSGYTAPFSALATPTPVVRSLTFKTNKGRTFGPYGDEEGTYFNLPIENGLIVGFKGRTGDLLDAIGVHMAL

stoichiometry N [1] | Compound | affinity chromatography on D-mannose column, eluted with free D-mannose [2]
4 | plant native ArtinM (natural protein) | –
– | OC[C@H]1OC(O)[C@@H](O)[C@@H](O)[C@@H]1O (stereo partly drawn) [D-mannose] | purified from the E. coli lysate by affinity chromatography on a D-mannose column
